The values that follow are results of earlier work, collected in publication PMC4581962.

The target of the series is IL-6Rα (Homo sapiens) (UniProt P08887).
Chain of UniProt P08887 (P08887 20-355): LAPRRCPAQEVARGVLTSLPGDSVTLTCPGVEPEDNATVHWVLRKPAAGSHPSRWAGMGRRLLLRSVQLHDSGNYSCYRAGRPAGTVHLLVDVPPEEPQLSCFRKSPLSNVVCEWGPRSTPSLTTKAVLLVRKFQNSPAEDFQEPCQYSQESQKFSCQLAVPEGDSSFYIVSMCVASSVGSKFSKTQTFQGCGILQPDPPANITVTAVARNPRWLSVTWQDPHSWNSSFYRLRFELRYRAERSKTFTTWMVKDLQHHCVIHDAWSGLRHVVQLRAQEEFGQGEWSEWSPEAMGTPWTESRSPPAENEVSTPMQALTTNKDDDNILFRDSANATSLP

Consider IL-6 (from UniProt P05231), for which the Kd – broadly, the concentration at which binding is half-saturated – is 9 nM.
